Consider one molecule from patent US20240269306A1, “B7H4-TARGETED ANTIBODY-DRUG CONJUGATES AND METHODS OF USE THEREOF” (Mersana Therapeutics, Inc., priority 2021, published 2024).

Assay [1] addresses T1, Recombinant human B7-H4 protein (R&D Systems #6576-B7-050) (human) (UniProt Q7Z7D3).
T1 sequence: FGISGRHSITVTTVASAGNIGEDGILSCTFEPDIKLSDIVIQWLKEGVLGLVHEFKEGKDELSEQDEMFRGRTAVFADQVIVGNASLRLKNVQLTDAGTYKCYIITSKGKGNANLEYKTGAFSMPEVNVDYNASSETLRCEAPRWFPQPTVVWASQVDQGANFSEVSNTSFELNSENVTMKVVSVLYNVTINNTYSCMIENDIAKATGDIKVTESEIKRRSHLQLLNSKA
As to the kind of experiment: BLI (Octet). On the technique in general: In BLI a coated tip is dipped into the sample, and binding shifts an interference pattern.

The target in assay [2] is T2, Human B7-H4 on the cell surface (MX-1, HCC1569, CAMA-1 cells; HEK-293 cells stably transfected with human B7-H4) (human) (UniProt Q7Z7D3).
T2 sequence: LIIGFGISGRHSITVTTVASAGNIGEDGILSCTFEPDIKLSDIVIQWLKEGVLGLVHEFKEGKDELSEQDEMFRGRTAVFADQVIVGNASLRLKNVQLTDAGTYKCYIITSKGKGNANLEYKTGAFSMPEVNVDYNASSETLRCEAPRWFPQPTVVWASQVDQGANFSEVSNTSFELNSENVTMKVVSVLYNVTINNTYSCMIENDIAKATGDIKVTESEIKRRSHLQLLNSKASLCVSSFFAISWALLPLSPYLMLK
Nature of the assay: flow cytometry, MX-1 cells. On the technique in general: A flow cytometer gives signals particle by particle.

Assay [3] has as its target T2, Human B7-H4 on the cell surface (MX-1, HCC1569, CAMA-1 cells; HEK-293 cells stably transfected with human B7-H4) (human). As to the kind of experiment: flow cytometry, MX-1 cells. This is another data set of the same source.
Assay [4] has the same target. Nature of the assay: flow cytometry, HCC1569 cells.
In assay [5] the target is T1, Recombinant human B7-H4 protein (R&D Systems #6576-B7-050) (human). Nature of the assay: ELISA, coated recombinant human B7-H4. A general note: In an ELISA, binding on a coated surface is turned into a signal by an enzyme label.
The target is the same in assay [6]. As to the kind of experiment: ELISA, coated recombinant human B7-H4. This is another data set of the same source.
For assay [7] the target is unchanged. As to the kind of experiment: BLI (Octet), antibody on anti-human Fc sensor, human B7-H4 in solution, 25 C.

Read-outs that look alike come from different tables or passages of the source.

B1: 1D11 antibody (antibody, from another filing, V domains shown)
VH: QVQLQQSGAELVRPGTSVKMSCKASGYTFTSYWIGWAKQRPGHGFEWIGDIYPGGGYTNYNEKFKGKATLTADKSSSTAYMQFSSLTSEDSAIYYCARLDGSSYRGAMDSWGQGTSITVSS
VL: DIQMTQSPSSLSASLGGKVTITCKASQGFNKYVAWYQHKPGQCPRLLIHYTSTLQPGIPARFSGSGSGRDYSFSISNLEPEDSATYFCLQYGNLLYAFGGGTKLEIKR
In general, EC50 refers to the concentration at which the effect is half-maximal. For orientation: Kd means the concentration at which binding is half-saturated. One may read the koff as the first-order rate constant of dissociation. As usually defined, the kon is a measure of how fast the partners come together. With B1, the fold difference of kon against B7-H4 2F9 and variant antibodies in assay [1] is under 2 fold. For the same molecule, the fold lower Kd than B7-H4 2F9 in assay [1] is over 100 fold. For the same molecule, the EC50 in assay [2] amounted to 4.9 nM; in assay [3], 8.83 nM; in assay [4] it was 3.44 nM; in assay [5] it was 0.52 nM; in assay [6] it was 0.86 nM. Moreover, the dissociation constant (Kd) in assay [7] came out at 0.117 nM. Also, in assay [7], the koff was 1.46e-05 s⁻¹. Further, the kon in assay [7] amounted to 125000 M⁻¹ s⁻¹.
